Source: US11793905B2, “Dressing” (University of Birmingham, priority 2015, dated 2023)

System: MFs
Test: Sirius red assay of collagen deposition from MFs under decorin-containing gellan membranes
Type: cell-based
Details: MFs with TGF-β1 added to produce excess collagen; 12 day period; Sirius red dye read at 550 nm; compared to non-treated samples
Description: FIG. 4—MFs were cultured in 6-well plates and left to attach overnight. After overnight attachment TGF-β1 was added to the cells to produces excess collagen. Decorin containing membranes were placed on top of the cultures and collagen production was observed using the Sirius Red assay over time.
FIG. 5: For quantifying the amount of Sirius red dye bound to collagen in the cultures the Sirius red was dissolved with 0.1N sodium hydroxide and left on a shaker for 30 min at room temperature. The dissolved dye was measured colourimetrically using a plate reader at 550 nm

B1: decorin (protein, UniProt P07585 31-359, looked up)
Decorin: DEASGIGPEVPDDRDFEPSLGPVCPFRCQCHLRVVQCSDLGLDKVPKDLPPDTTLLDLQNNKITEIKDGDFKNLKNLHALILVNNKISKVSPGAFTPLVKLERLYLSKNQLKELPEKMPKTLQELRAHENEITKVRKVTFNGLNQMIVIELGTNPLKSSGIENGAFQGMKKLSYIRIADTNITSIPQGLPPSLTELHLDGNKISRVDAASLKGLNNLAKLGLSFNSISAVDNGSLANTPHLRELHLDNNKLTRVPGGLAEHKYIQVVYLHNNNISVVGSSDFCPPGHNTKKASYSGVSLFSNPVQYWEIQPSTFRCVYVRSAIQLGNYK
notes: secreted 45 kDA proteoglycan with a core protein comprising primarily leucine-rich repeats; antifibrotic agent
amount of collagen deposited: significantly reduces the amount of collagen deposited
